From US20240116985A1, “STAPLED PEPTIDES AND METHODS THEREOF” (priority 2020, published 2024)
Starred links: 1 amine or outer side, 2 acyl side, 3 side chain; linkers in the order of their positions; H or OH if unused. Positions of bridges follow the written chain, without caps; N, C: chain ends. Non-standard residues stand in square brackets, D forms with d. Primed or numbered codes have the meaning given here. *: point of attachment. PyrS2″ = (S)-3-amino-1-((pent-4-en-1-yloxy)carbonyl)pyrrolidine-3-carboxylic acid (stapling residue), C=CCCCOC(=O)N1CC[C@@](N[*:1])(C(=O)[*:2])C1; B5(32) = 2-amino-2-(pent-4-en-1-yl)hept-6-enoic acid (bis-4-pentenylglycine, two alkene side chains), C=CCCCC(CCCC=C)(N[*:1])C(=O)[*:2]; B5(4) = 2,2-bis(4-pentenyl)glycine = 2-amino-2-(pent-4-en-1-yl)hept-6-enoic acid (stitching residue), C=CCCCC(CCCC=C)(N[*:1])C(=O)[*:2]; PyrS2 = (S)-3-amino-1-((pent-4-en-1-yloxy)carbonyl)pyrrolidine-3-carboxylic acid, C=CCCCOC(=O)N1CC[C@@](N[*:1])(C(=O)[*:2])C1; PyrS = (S)-1-((allyloxy)carbonyl)-3-aminopyrrolidine-3-carboxylic acid, C=CCOC(=O)N1CC[C@@](N[*:1])(C(=O)[*:2])C1; 3Br4FF = (S)-2-amino-3-(3-bromo-4-fluorophenyl)propanoic acid, O=C([C@H](Cc1ccc(F)c(Br)c1)N[*:1])[*:2]; MorphAsn = (S)-2-amino-4-morpholino-4-oxobutanoic acid, O=C(C[C@H](N[*:1])C(=O)[*:2])N1CCOCC1; B5(3) = 2,2-bis(4-pentenyl)glycine (stitching residue), C=CCCCC(CCCC=C)(N[*:1])C(=O)[*:2]; B5 = 2-amino-2-(pent-4-en-1-yl)hept-6-enoic acid, C=CCCCC(CCCC=C)(N[*:1])C(=O)[*:2]; B6 = 2-amino-2-(hex-5-en-1-yl)oct-7-enoic acid, C=CCCCCC(CCCCC=C)(N[*:1])C(=O)[*:2]; Phe(3-COOH) = N[C@@H](Cc1cccc(C(=O)O)c1)C(=O)O; Phe(2-CF3) = N[C@@H](Cc1ccccc1C(F)(F)F)C(=O)O; Phe(2-Cl) = N[C@@H](Cc1ccccc1Cl)C(=O)O; Phe(4-Me) = Cc1ccc(C[C@H](N)C(=O)O)cc1; 2Nal = N[C@@H](Cc1ccc2ccccc2c1)C(=O)O; Phe(2-Me) = Cc1ccccc1C[C@H](N)C(=O)O; Bta = N[C@@H](Cc1csc2ccccc12)C(=O)O; αAllylPro = C=CC[C@@]1(C(=O)O)CCCN1; tBuAla = CC(C)(C)C[C@H](N)C(=O)O; 3Thi = N[C@@H](Cc1ccsc1)C(=O)O; Cha = N[C@@H](CC1CCCCC1)C(=O)O; S8 = C=CCCCCCC[C@](C)(N)C(=O)O; Aib = CC(C)(N)C(=O)O; BrAc = O=C(CBr)*

Target: full-length beta-Catenin (Uniprot ID P35222) (Homo sapiens (Human)) (UniProt P35222)
Assay: fluorescence polarization competition; 10 nM full-length beta-catenin, competitor 10 nM 5FAM-TCF4(10-53)

full-length beta-Catenin (Uniprot ID P35222) (Homo sapiens (Human)), sequence (P35222 whole entry): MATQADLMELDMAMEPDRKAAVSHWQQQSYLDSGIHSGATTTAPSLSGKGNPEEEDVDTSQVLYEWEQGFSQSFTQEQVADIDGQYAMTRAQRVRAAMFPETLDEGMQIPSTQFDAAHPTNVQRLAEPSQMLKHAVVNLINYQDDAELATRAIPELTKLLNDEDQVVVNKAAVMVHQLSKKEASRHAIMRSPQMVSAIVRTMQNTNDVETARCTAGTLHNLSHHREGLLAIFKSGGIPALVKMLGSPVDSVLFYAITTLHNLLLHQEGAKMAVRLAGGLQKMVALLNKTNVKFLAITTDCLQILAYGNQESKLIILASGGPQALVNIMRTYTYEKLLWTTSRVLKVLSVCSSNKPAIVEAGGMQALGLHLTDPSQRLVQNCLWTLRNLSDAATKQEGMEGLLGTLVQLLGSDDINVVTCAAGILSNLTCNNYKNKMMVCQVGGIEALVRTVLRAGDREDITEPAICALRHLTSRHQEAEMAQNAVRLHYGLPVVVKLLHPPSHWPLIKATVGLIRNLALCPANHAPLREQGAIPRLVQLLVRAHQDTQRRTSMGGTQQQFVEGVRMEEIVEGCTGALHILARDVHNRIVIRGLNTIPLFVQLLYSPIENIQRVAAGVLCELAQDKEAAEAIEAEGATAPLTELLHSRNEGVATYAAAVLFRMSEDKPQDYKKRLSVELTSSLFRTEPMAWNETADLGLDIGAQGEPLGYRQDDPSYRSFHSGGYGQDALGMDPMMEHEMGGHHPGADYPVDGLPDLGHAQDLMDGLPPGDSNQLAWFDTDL

IC50 [nM]	EC50 [nM]	Binder
168		Ac-[αAllylPro]D[tBuAla][B6]D[Phe(3-COOH)]QAFL[PyrS][Phe(2-CF3)][Bta]A-NH2 (staple 1-4, 4-11; also: later-eluting staple isomer composition) [I-2507]
210		Ac-[αAllylPro]N[Cha][B5]DQQAFL[PyrS2]F[Bta][MorphAsn]-NH2 (staple 1-4, 4-11) [I-2504]
332		Ac-[αAllylPro]D[tBuAla][B6]D[Phe(3-COOH)]QAFL[PyrS][Phe(2-CF3)][Bta]A-NH2 (staple 1-4, 4-11; also: earlier-eluting staple isomer composition) [I-2506]

Continued, binder first:

Binder	IC50 [nM]	EC50 [nM]
Ac-[αAllylPro]DA[B5(4)]DDAA[Phe(2-Me)]A[S8]F[Bta]Q-NH2 (staple 1-4, 4-11; also: earlier-eluting staple isomer) [I-365]		2720
Ac-[αAllylPro]DA[B5(4)]DDAA[Phe(2-Me)]A[S8]F[Bta]Q-NH2 (staple 1-4, 4-11; also: later-eluting staple isomer) [I-366]		1440
Ac-[αAllylPro]DA[B5(4)]DDAA[2Nal]A[S8]F[Bta]Q-NH2 (staple 1-4, 4-11) [I-370]		1560
Ac-[αAllylPro]DA[B5(4)]DDAAFA[S8][Phe(4-Me)][Bta]Q-NH2 (staple 1-4, 4-11) [I-369]		2310
Ac-[αAllylPro]DA[B5(4)]DDAAFA[S8][Phe(2-Me)][Bta]Q-NH2 (staple 1-4, 4-11) [I-367]		177

Target: full-length beta-Catenin (Uniprot ID P35222) (Homo sapiens (Human)) (UniProt P35222)
Assay: fluorescence polarization competition; peptide titrated against 10 nM full-length beta-catenin + 10 nM 5FAM-TCF4(10-53)

IC50 [nM]	Binder
2720	Ac-[αAllylPro]DA[B5(4)]DDAA[Phe(2-Me)]A[S8]F[Bta]Q-NH2 (staple 1-4, 4-11; also: earlier-eluting staple isomer) [I-365]
1440	Ac-[αAllylPro]DA[B5(4)]DDAA[Phe(2-Me)]A[S8]F[Bta]Q-NH2 (staple 1-4, 4-11; also: later-eluting staple isomer) [I-366]
1560	Ac-[αAllylPro]DA[B5(4)]DDAA[2Nal]A[S8]F[Bta]Q-NH2 (staple 1-4, 4-11) [I-370]
2310	Ac-[αAllylPro]DA[B5(4)]DDAAFA[S8][Phe(4-Me)][Bta]Q-NH2 (staple 1-4, 4-11) [I-369]
177	Ac-[αAllylPro]DA[B5(4)]DDAAFA[S8][Phe(2-Me)][Bta]Q-NH2 (staple 1-4, 4-11) [I-367]

Target: full-length beta-Catenin (Uniprot ID P35222) (Homo sapiens (Human)) (UniProt P35222)
Assay: fluorescence polarization competition; full-length beta-catenin, competitor probe 5FAM-TCF4(10-53)

IC50 [nM]	Binder
138	Ac-[αAllylPro]D[tBuAla][B5(4)]D[Phe(3-COOH)]AAFL[PyrS2][3Thi][Bta]NALALA-NH2 (staple 1-4, 4-11; also: earlier eluting staple isomer) [I-2281]
2680	Ac-[αAllylPro]D[tBuAla][B5(4)]D[Phe(3-COOH)]AAFL[PyrS2][3Thi][Bta]NALALALA-NH2 (staple 1-4, 4-11; also: later eluting staple isomer) [I-2284]
94	BrAc-[αAllylPro]D[tBuAla][B5(32)]DDAAFQ[PyrS2][3Thi][Bta]H-NH2 (staple 1-4, 4-11) [I-2285]
8	Ac-[αAllylPro]D[tBuAla][B5(4)]D[Phe(3-COOH)]AAFL[PyrS2][Phe(2-CF3)][3Br4FF]S-NH2 (staple 1-4, 4-11) [I-2289]
156	Ac-[αAllylPro]D[tBuAla][B5(4)]D[Phe(3-COOH)]AAFL[PyrS2][3Thi][Bta]NALALA-NH2 (staple 1-4, 4-11; also: later eluting staple isomer) [I-2282]
88	BrAc-[αAllylPro]D[tBuAla][B5(4)]D[Phe(3-COOH)]AAFL[PyrS2][Phe(2-Cl)][Bta]A-NH2 (staple 1-4, 4-11) [I-2286]
120	Ac-[αAllylPro]D[tBuAla][B5(32)]D[Phe(3-COOH)]AAFL[PyrS2][3Thi][Bta]NALL-NH2 (staple 1-4, 4-11; also: later eluting staple isomer) [I-2278]
2860	Ac-[αAllylPro]D[tBuAla][B5(4)]D[Phe(3-COOH)]AAFL[PyrS2][3Thi][Bta]NALALALA-NH2 (staple 1-4, 4-11; also: earlier eluting staple isomer) [I-2283]
7	Ac-[αAllylPro]D[tBuAla][B5(4)]D[Phe(3-COOH)]AAFL[PyrS2][3Thi][3Br4FF]Q-NH2 (staple 1-4, 4-11) [I-2287]
14	Ac-[αAllylPro]D[tBuAla][B5(4)]D[Phe(3-COOH)]QAFL[PyrS2][Phe(2-CF3)][3Br4FF]A-NH2 (staple 1-4, 4-11) [I-2290]

Continued, binder first:

Binder	IC50 [nM]
Ac-[αAllylPro]D[tBuAla][B5(3)]D[Phe(3-COOH)]AAFL[PyrS2″][3Thi][Bta]NL-NH2 (staple 1-4, 4-11) [I-2274]	10
Ac-[αAllylPro]D[tBuAla][B5(32)]D[Phe(3-COOH)]AAFL[PyrS2][3Thi][Bta]NLLL-NH2 (staple 1-4, 4-11; also: later eluting staple isomer (HPLC peak)) [I-2276]	158
Ac-[αAllylPro]D[tBuAla][B5(3)]D[Phe(3-COOH)]AAFL[PyrS2″][3Thi][Bta]NA[Aib]A[Aib]A-NH2 (staple 1-4, 4-11) [I-2272]	43
Ac-[αAllylPro]D[tBuAla][B5(3)]D[Phe(3-COOH)]AAFL[PyrS2″][3Thi][Bta]NA[Aib]A[Aib]A[Aib]A-NH2 (staple 1-4, 4-11) [I-2273]	107
Ac-[αAllylPro]D[tBuAla][B5(3)]D[Phe(3-COOH)]AAFL[PyrS2″][3Thi][Bta]NAAAAAAAAA-NH2 (staple 1-4, 4-11) [I-2270]	40
Ac-[αAllylPro]D[tBuAla][B5(3)]D[Phe(3-COOH)]AAFL[PyrS2″][3Thi][Bta]NAAAAAAA-NH2 (staple 1-4, 4-11) [I-2269]	20
Ac-[αAllylPro]D[tBuAla][B5(32)]D[Phe(3-COOH)]AAFL[PyrS2][3Thi][Bta]NLLL-NH2 (staple 1-4, 4-11; also: earlier eluting staple isomer (HPLC peak)) [I-2275]	117
Ac-[αAllylPro]D[tBuAla][B5(32)]D[Phe(3-COOH)]AAFL[PyrS2][3Thi][Bta]NALL-NH2 (staple 1-4, 4-11; also: earlier eluting staple isomer) [I-2277]	114
